Test results as given in patent US20200002414A1 (published 2020).

Key:
human Ror2 [1] = molecular target: T1, human Ror2 (human, UniProt Q01974 34-403, limits assumed); test: ELISA, human Ror2, pH 6.0
T1 construct: also called hROR2; receptor tyrosine kinase-like orphan receptor 2

human Ror2 [2] = molecular target: T1, human Ror2; test: ELISA, human Ror2, pH 7.4
human Ror2 [3] = molecular target: T1, human Ror2; test: ELISA, human Ror2; ratio of signal at pH 6.0 to pH 7.4

T1 sequence (Q01974 34-403 limits assumed): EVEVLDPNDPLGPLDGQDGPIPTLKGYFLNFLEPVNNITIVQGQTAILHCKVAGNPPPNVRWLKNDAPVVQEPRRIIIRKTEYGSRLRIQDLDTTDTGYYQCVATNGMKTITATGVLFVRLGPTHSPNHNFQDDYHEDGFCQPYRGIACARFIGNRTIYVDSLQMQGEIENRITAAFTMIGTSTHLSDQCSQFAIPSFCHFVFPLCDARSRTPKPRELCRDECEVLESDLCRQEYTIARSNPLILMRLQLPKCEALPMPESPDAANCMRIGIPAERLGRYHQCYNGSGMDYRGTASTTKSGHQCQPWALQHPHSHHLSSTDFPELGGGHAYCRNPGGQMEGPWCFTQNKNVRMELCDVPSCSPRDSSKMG

| Binder | Affinity ELISA pH 6.0 (human Ror2 [1]) | Affinity ELISA pH 7.4 (human Ror2 [2]) | ratio, pH 6.0/7.4 (human Ror2 [3]) |
| --- | --- | --- | --- |
| HC-N106E (antibody, V domains shown) VH: EVQLQQSGPELVKPGASVKISCKTSGYTFTEYTMHWMKQSHRKSLEWIGGINTNNGGTGYNQKFKGKATLTVDKSSSTAYMELRSLTSEDSAVYFCARGSLYSYGESYFDYWGQGTLVTVSS VL: QIVLTQSPAIMSASPGEKVTITCSATSSVSYMHWFQQKPGTSPKLWIYGTSNLASGVPARFSGSGSGTSYSLTISRMEAEDAATYYCQQRSSYPFTFGQGTKVEIK | 0.224 | 0.115 | 1.95 |
| HC-F029E (antibody, V domains shown) VH: EVQLQQSGPELVKPGASVKISCKTSGYTETEYTMHWMKQSHRKSLEWIGGINTNNGGTGYNQKFKGKATLTVDKSSSTAYMELRSLTSEDSAVYFCARGSLYSYGNSYFDYWGQGTLVTVSS VL: QIVLTQSPAIMSASPGEKVTITCSATSSVSYMHWFQQKPGTSPKLWIYGTSNLASGVPARFSGSGSGTSYSLTISRMEAEDAATYYCQQRSSYPFTFGQGTKVEIK | 1.34 | 0.742 | 1.81 |
| HC-D110L (antibody, V domains shown) VH: EVQLQQSGPELVKPGASVKISCKTSGYTFTEYTMHWMKQSHRKSLEWIGGINTNNGGTGYNQKFKGKATLTVDKSSSTAYMELRSLTSEDSAVYFCARGSLYSYGNSYFLYWGQGTLVTVSS VL: QIVLTQSPAIMSASPGEKVTITCSATSSVSYMHWFQQKPGTSPKLWIYGTSNLASGVPARFSGSGSGTSYSLTISRMEAEDAATYYCQQRSSYPFTFGQGTKVEIK | 1.68 | 1.4 | 1.68 |
| HC-L101F (antibody, V domains shown) VH: EVQLQQSGPELVKPGASVKISCKTSGYTFTEYTMHWMKQSHRKSLEWIGGINTNNGGTGYNQKFKGKATLTVDKSSSTAYMELRSLTSEDSAVYFCARGSFYSYGNSYFDYWGQGTLVTVSS VL: QIVLTQSPAIMSASPGEKVTITCSATSSVSYMHWFQQKPGTSPKLWIYGTSNLASGVPARFSGSGSGTSYSLTISRMEAEDAATYYCQQRSSYPFTFGQGTKVEIK | 1.46 | 1.41 | 1.46 |
| HC-G105D (antibody, V domains shown) VH: EVQLQQSGPELVKPGASVKISCKTSGYTFTEYTMHWMKQSHRKSLEWIGGINTNNGGTGYNQKFKGKATLTVDKSSSTAYMELRSLTSEDSAVYFCARGSLYSYDNSYFDYWGQGTLVTVSS VL: QIVLTQSPAIMSASPGEKVTITCSATSSVSYMHWFQQKPGTSPKLWIYGTSNLASGVPARFSGSGSGTSYSLTISRMEAEDAATYYCQQRSSYPFTFGQGTKVEIK | 0.509 | 0.379 | 1.34 |
| HC-G099E (antibody, V domains shown) VH: EVQLQQSGPELVKPGASVKISCKTSGYTFTEYTMHWMKQSHRKSLEWIGGINTNNGGTGYNQKFKGKATLTVDKSSSTAYMELRSLTSEDSAVYFCARESLYSYGNSYFDYWGQGTLVTVSS VL: QIVLTQSPAIMSASPGEKVTITCSATSSVSYMHWFQQKPGTSPKLWIYGTSNLASGVPARFSGSGSGTSYSLTISRMEAEDAATYYCQQRSSYPFTFGQGTKVEIK | 0.616 | 0.421 | 1.46 |

Second part, the binder after the results:

| Affinity ELISA pH 6.0 (human Ror2 [1]) | Affinity ELISA pH 7.4 (human Ror2 [2]) | ratio, pH 6.0/7.4 (human Ror2 [3]) | Binder |
| --- | --- | --- | --- |
| 0.928 | 0.353 | 2.63 | HC-R098H (antibody, V domains shown) VH: EVQLQQSGPELVKPGASVKISCKTSGYTFTEYTMHWMKQSHRKSLEWIGGINTNNGGTGYNQKFKGKATLTVDKSSSTAYMELRSLTSEDSAVYFCAHGSLYSYGNSYFDYWGQGTLVTVSS VL: QIVLTQSPAIMSASPGEKVTITCSATSSVSYMHWFQQKPGTSPKLWIYGTSNLASGVPARFSGSGSGTSYSLTISRMEAEDAATYYCQQRSSYPFTFGQGTKVEIK |
| 0.626 | 0.232 | 2.7 | HC-T033C (antibody, V domains shown) VH: EVQLQQSGPELVKPGASVKISCKTSGYTFTEYCMHWMKQSHRKSLEWIGGINTNNGGTGYNQKFKGKATLTVDKSSSTAYMELRSLTSEDSAVYFCARGSLYSYGNSYFDYWGQGTLVTVSS VL: QIVLTQSPAIMSASPGEKVTITCSATSSVSYMHWFQQKPGTSPKLWIYGTSNLASGVPARFSGSGSGTSYSLTISRMEAEDAATYYCQQRSSYPFTFGQGTKVEIK |
| 1.86 | 1.4 | 1.68 | HC-Y111T (antibody, V domains shown) VH: EVQLQQSGPELVKPGASVKISCKTSGYTFTEYTMHWMKQSHRKSLEWIGGINTNNGGTGYNQKFKGKATLTVDKSSSTAYMELRSLTSEDSAVYFCARGSLYSYGNSYFDTWGQGTLVTVSS VL: QIVLTQSPAIMSASPGEKVTITCSATSSVSYMHWFQQKPGTSPKLWIYGTSNLASGVPARFSGSGSGTSYSLTISRMEAEDAATYYCQQRSSYPFTFGQGTKVEIK |
| 1.47 | 0.51 | 2.88 | HC-Y032D (antibody, V domains shown) VH: EVQLQQSGPELVKPGASVKISCKTSGYTFTEDTMHWMKQSHRKSLEWIGGINTNNGGTGYNQKFKGKATLTVDKSSSTAYMELRSLTSEDSAVYFCARGSLYSYGNSYFDYWGQGTLVTVSS VL: QIVLTQSPAIMSASPGEKVTITCSATSSVSYMHWFQQKPGTSPKLWIYGTSNLASGVPARFSGSGSGTSYSLTISRMEAEDAATYYCQQRSSYPFTFGQGTKVEIK |
| 0.799 | 0.276 | 2.89 | HC-R098Q (antibody, V domains shown) VH: EVQLQQSGPELVKPGASVKISCKTSGYTFTEYTMHWMKQSHRKSLEWIGGINTNNGGTGYNQKFKGKATLTVDKSSSTAYMELRSLTSEDSAVYFCAQGSLYSYGNSYFDYWGQGTLVTVSS VL: QIVLTQSPAIMSASPGEKVTITCSATSSVSYMHWFQQKPGTSPKLWIYGTSNLASGVPARFSGSGSGTSYSLTISRMEAEDAATYYCQQRSSYPFTFGQGTKVEIK |
| 0.794 | 0.655 | 1.21 | HC-S103G (antibody, V domains shown) VH: EVQLQQSGPELVKPGASVKISCKTSGYTFTEYTMHWMKQSHRKSLEWIGGINTNNGGTGYNQKFKGKATLTVDKSSSTAYMELRSLTSEDSAVYFCARGSLYGYGNSYFDYWGQGTLVTVSS VL: QIVLTQSPAIMSASPGEKVTITCSATSSVSYMHWFQQKPGTSPKLWIYGTSNLASGVPARFSGSGSGTSYSLTISRMEAEDAATYYCQQRSSYPFTFGQGTKVEIK |
| 1.08 | 0.793 | 1.36 | HC-Y111C (antibody, V domains shown) VH: EVQLQQSGPELVKPGASVKISCKTSGYTFTEYTMHWMKQSHRKSLEWIGGINTNNGGTGYNQKFKGKATLTVDKSSSTAYMELRSLTSEDSAVYFCARGSLYSYGNSYFDCWGQGTLVTVSS VL: QIVLTQSPAIMSASPGEKVTITCSATSSVSYMHWFQQKPGTSPKLWIYGTSNLASGVPARFSGSGSGTSYSLTISRMEAEDAATYYCQQRSSYPFTFGQGTKVEIK |
| 1.75 | 1.7 | 1.75 | HC-W112L (antibody, V domains shown) VH: EVQLQQSGPELVKPGASVKISCKTSGYTFTEYTMHWMKQSHRKSLEWIGGINTNNGGTGYNQKFKGKATLTVDKSSSTAYMELRSLTSEDSAVYFCARGSLYSYGNSYFDYLGQGTLVTVSS VL: QIVLTQSPAIMSASPGEKVTITCSATSSVSYMHWFQQKPGTSPKLWIYGTSNLASGVPARFSGSGSGTSYSLTISRMEAEDAATYYCQQRSSYPFTFGQGTKVEIK |
